Laboratory results taken from PMC6510727 (2019).
Where two headings read alike, the source gives them in different places. Each block holds one binder with its values, some of them ahead of it.

How the values were obtained:
transducin α (Tα*) = transducin α (Tα*) (Bos taurus, UniProt P04695); experiment: PDE activation assay fit (membranes)
[1] = molecular target: T1, PDE catalytic subunit (PDEcat) (Bos taurus, UniProt P11541)
T1 chain 1: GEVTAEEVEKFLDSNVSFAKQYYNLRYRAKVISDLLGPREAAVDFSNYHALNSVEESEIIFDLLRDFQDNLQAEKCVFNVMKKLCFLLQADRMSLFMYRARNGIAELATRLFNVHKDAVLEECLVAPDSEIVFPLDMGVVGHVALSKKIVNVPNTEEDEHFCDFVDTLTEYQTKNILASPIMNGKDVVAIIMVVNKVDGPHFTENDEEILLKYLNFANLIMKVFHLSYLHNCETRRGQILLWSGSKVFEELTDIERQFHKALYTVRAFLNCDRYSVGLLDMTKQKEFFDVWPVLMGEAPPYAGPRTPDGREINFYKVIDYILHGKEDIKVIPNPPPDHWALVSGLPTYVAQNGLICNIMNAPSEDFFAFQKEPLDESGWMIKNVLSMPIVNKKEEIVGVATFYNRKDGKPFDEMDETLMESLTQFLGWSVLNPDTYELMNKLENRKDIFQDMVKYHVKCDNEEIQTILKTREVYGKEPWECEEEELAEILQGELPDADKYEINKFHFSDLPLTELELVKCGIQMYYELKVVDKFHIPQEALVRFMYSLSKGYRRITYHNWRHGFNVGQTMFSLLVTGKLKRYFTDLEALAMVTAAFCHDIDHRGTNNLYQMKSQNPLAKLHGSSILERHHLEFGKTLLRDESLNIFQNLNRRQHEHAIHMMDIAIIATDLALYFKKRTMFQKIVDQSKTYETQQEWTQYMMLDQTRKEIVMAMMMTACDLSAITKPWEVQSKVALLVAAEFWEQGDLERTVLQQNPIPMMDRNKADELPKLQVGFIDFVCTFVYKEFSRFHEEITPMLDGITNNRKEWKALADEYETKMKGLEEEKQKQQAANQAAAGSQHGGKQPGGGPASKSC
T1 chain 2: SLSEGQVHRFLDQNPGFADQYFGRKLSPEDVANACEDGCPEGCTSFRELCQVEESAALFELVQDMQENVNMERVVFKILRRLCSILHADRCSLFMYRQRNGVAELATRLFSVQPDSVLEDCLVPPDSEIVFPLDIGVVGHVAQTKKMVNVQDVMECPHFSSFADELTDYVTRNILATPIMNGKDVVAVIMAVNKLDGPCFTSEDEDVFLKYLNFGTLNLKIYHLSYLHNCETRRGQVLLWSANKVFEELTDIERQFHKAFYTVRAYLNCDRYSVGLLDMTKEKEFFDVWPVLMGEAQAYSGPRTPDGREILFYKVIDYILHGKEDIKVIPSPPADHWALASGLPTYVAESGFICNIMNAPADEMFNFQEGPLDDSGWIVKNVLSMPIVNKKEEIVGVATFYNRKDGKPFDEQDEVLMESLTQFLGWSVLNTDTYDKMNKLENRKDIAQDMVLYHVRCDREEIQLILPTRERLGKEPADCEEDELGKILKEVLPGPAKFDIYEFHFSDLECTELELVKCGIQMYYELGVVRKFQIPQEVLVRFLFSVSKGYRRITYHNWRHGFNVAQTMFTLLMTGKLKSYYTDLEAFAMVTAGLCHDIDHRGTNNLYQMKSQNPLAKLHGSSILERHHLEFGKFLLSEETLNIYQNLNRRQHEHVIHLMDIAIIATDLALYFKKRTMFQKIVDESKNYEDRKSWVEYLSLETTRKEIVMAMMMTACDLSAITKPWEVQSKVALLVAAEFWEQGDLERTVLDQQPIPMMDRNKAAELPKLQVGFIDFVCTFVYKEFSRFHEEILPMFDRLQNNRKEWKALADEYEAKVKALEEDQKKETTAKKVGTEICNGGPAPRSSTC

transducin α (Tα-S*) = transducin α (Tα-S*) (Bos taurus, UniProt P04695); experiment: PDE activation assay fit (solution)
[2] = molecular target: T1, PDE catalytic subunit (PDEcat); experiment: PDE activity assay (membranes)

transducin α (Tα-S*), sequence (P04695 2-350): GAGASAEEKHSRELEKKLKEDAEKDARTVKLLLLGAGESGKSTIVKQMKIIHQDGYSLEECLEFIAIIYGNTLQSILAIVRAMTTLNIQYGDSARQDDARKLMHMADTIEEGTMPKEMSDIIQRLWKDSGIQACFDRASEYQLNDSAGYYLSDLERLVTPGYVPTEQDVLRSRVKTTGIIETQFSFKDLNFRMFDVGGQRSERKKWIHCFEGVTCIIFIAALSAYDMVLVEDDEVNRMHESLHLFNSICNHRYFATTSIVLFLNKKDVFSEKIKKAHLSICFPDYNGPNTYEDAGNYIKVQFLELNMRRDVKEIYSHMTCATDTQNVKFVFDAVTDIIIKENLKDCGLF
transducin α (Tα*), sequence (P04695 2-350): as above

B1: PDEγ (protein)
chain: MNLEPPKAEIRSATRVMGGPVTPRKGPPKFKQRQTRQFKSKPPKKGVQGFGDDIPGMEGLGTDITVICPWEAFNHLELHELAQYGII
modifications: activated Tα, membranes
- Kd (transducin α (Tα*)): 0.0565 nM

B2: PDEγ (protein)
chain: B1 chain
- Kd [1]: 0.005 nM

Further lines, results first:

- Kd (transducin α (Tα-S*)): 4.5 nM
B3: PDEγ (protein)
chain: B1 chain
modifications: GTPγS-bound Tα

- Kd [2]: 0.055 nM
B4: PDEγ (protein)
chain: B1 chain
modifications: membranes
